Each block holds one binder with its values, some of them ahead of it.
Legend:
Experiment in all cases: SPR (Caterra or Biacore), antigen immobilized
HuCDCP1-C = molecular target: T1, HuCDCP1-C (human, UniProt Q9H5V8 30-667)
T1 construct: range 30-667; expressed in HEK-293T, purified by Fc/his tag; also called human CDCP1-C; full-length extracellular domain of human CDCP1; not shown: Fc or his tag
T1 sequence (looked up): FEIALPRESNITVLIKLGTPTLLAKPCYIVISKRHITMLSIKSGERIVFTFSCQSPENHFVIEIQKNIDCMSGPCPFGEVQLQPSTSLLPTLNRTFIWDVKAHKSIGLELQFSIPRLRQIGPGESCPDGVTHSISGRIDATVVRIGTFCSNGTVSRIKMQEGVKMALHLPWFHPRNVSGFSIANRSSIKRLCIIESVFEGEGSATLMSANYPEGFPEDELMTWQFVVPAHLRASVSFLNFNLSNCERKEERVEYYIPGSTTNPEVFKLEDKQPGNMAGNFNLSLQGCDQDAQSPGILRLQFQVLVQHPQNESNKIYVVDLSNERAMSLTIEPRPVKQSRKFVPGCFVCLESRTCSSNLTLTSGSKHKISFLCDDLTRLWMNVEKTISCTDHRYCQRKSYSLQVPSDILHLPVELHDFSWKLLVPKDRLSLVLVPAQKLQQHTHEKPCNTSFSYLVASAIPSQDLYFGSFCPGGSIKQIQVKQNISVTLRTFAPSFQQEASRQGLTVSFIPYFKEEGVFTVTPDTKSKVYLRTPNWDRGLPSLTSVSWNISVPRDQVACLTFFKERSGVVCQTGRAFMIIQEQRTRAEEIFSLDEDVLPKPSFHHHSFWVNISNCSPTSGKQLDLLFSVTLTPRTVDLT

CynoCDCP1 = molecular target: T2, CynoCDCP1 (Macaca fascicularis, UniProt A0A2K5VLA8 30-667)
T2 construct: extracellular domain; also called Macaca fascicularis CDCP1; monkey CDCP1; not shown: Fc or his tag
T2 sequence: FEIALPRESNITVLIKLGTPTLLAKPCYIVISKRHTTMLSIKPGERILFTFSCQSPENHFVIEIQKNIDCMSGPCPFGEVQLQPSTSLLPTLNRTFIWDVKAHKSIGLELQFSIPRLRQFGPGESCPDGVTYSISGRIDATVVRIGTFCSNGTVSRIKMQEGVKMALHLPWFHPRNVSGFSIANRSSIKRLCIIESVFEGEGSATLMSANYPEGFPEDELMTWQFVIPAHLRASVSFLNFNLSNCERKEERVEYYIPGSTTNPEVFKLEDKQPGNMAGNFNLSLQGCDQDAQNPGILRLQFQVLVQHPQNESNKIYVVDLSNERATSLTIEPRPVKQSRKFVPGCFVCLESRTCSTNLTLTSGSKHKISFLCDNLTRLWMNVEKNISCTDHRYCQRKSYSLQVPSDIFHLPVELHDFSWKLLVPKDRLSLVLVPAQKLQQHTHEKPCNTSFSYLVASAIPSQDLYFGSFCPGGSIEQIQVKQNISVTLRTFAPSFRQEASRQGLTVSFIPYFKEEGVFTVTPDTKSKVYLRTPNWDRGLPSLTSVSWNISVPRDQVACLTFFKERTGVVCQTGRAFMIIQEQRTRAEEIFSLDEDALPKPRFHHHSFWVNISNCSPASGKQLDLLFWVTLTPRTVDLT

MsCDCP1 = molecular target: T3, MsCDCP1 (mouse, UniProt Q5U462 30-666)
T3 construct: extracellular domain; also called mouse CDCP1; not shown: Fc or his tag
T3 sequence (looked up): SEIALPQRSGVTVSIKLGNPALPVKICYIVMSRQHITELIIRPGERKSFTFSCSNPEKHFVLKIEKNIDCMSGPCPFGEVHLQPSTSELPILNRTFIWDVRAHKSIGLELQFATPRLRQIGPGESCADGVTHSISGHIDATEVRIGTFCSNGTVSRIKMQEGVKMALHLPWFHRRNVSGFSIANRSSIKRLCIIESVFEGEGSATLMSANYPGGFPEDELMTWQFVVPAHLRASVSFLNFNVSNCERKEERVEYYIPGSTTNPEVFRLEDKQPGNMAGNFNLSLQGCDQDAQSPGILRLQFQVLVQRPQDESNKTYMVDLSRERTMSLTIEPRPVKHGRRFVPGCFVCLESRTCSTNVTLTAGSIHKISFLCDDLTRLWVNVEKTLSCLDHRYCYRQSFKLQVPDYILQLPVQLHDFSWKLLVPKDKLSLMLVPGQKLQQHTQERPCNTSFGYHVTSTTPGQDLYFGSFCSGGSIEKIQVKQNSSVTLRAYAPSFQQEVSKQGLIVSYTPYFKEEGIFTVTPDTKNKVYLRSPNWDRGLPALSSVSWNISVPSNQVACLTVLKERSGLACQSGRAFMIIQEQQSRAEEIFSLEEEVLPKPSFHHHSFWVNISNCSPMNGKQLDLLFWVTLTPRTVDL

RatCDCP1 = molecular target: T4, RatCDCP1 (rat, UniProt D3ZVA1 29-666)
T4 construct: extracellular domain; not shown: Fc or his tag
T4 sequence: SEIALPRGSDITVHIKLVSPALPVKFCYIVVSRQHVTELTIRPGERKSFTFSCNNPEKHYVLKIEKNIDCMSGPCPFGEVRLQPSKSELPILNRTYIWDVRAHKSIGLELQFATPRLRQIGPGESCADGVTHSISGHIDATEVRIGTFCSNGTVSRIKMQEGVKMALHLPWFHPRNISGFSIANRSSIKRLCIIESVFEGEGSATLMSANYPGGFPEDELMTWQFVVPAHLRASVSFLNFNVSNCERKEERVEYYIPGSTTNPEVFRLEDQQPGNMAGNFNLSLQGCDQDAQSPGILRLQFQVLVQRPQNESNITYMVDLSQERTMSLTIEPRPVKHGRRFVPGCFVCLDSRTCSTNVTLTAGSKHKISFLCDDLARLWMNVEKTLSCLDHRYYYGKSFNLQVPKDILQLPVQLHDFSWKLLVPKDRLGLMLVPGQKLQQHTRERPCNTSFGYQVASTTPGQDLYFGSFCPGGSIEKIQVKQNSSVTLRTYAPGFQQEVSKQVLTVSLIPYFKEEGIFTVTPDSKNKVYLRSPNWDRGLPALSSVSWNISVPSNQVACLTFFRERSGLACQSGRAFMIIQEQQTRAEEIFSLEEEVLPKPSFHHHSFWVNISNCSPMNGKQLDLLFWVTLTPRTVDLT

EC50 (HuCDCP1-C): 2.02 nM | EC50 (CynoCDCP1): 98.3 nM
B1: 14A10C5 (antibody, V domains shown)
VH: EVKLVESGPGILQPSQTLSLTCSFSGFSLSTSGMGVSWIRQPSGKGLEWLAHIYWDDEKRYNPSLKSRLTISKDTSSNQVFLKITSVDTADTATYYCAREGSANWEAMDYWGQGTTVTVSS
VL: DIVMTQAALSLPVSLGDQASISCRSSQNIVYTNGITYLEWYLQKPGQSPKLLIYKVSNRFSGVPDRFSGSGSATDFTLKISRVEAEDLGVYYCFQSSHVPWTFGGGTKLEIK
notes: murine hybridoma mAb; also called 14A10CS
binding result (MsCDCP1): no binding (tested: 150 nM highest concentration) | binding result (RatCDCP1): no binding (tested: 150 nM highest concentration)

EC50 (HuCDCP1-C): 1.72 nM | EC50 (CynoCDCP1): 0.564 nM | EC50 (RatCDCP1): 30.5 nM
B2: 8C9 (antibody, V domains shown)
VH: EVQLKESGGGLVQPGGSLRISCATSGLTFTHYHMSWVRQPPGKAPEWLAIIRNKAYGYTTDYSASVRGRFTISRDDSQSILYLQMNTLRPEDSATYYCVREGGYGYDGTFAYWGQGTTVTVSS
VL: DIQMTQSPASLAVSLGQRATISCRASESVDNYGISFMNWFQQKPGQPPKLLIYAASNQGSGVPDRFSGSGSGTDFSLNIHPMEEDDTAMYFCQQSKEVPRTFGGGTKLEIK
notes: murine hybridoma mAb
binding result (MsCDCP1): no binding (tested: 150 nM highest concentration)

EC50 (HuCDCP1-C): 37.9 nM | EC50 (CynoCDCP1): 115 nM | EC50 (RatCDCP1): 17 nM
B3: 3F1A11 (antibody, V domains shown)
VH: EVKLVESGPGLVKPSQSLSLTCTVTGYSITSDYAWNWIRQFPGNKLEWMGYISYNTYTSYNPSLKSRISVTRDTSKNQFFLQLKSVTIEDTATYFCAGGDYYGTGAVDYWGQGTTVTVSS
VL: EIVLTQSPLSLPVSLGDQASISCRSRQTLVHTNGNTYLDWYLQKPGQSPKLLIYKVSIRFSGVPDRFSGSRSGTDFTLKISRVEAEDLGIYYCFQGSHVPWTFGGGTKLEIK
notes: murine hybridoma mAb
binding result (MsCDCP1): no binding (tested: 150 nM highest concentration)

EC50 (HuCDCP1-C): 0.705 nM | EC50 (CynoCDCP1): 16.1 nM | EC50 (RatCDCP1): 41.1 nM
B4: 10D2 (antibody, V domains shown)
VH: EVQLQQSGPELKKPGETVKISCKASGYTFTDYSMHWVKQAPGKGLKWMGWINTETGQPTYADDFKGRFAFSLETSASSAYLQINNLKNEDTATYFCTRTFYYDYVGDYWGQGTTVTVSS
VL: DIVMTQSHKFMSTSVGDRVSITCKASQDVSTAVAWYRQKPGQSPKLLIYWASTRHTGVPDRLTGSGSGTDFALTINSVQAEDLALYYCQQHSSTPYTFGGGTKLEIK
notes: murine hybridoma mAb
binding result (MsCDCP1): no binding (tested: 150 nM highest concentration)

Reference: patent US20260250410A1 (SICHUAN HUIYU PHARMACEUTICAL, published 2026)
